Laboratory results reported in IntAct's records for PubMed 25789606.

B1: Ameloblastin (Homo sapiens), Q9NP70 (parent)
chain: MSASKIPLFKMKDLILILCLLEMSFAVPFFPQQSGTPGMASLSLETMRQLGSLQRLNTLSQYSRYGFGKSFNSLWMHGLLPPHSSLPWMRPREHETQQYEYSLPVHPPPLPSQPSLKPQQPGLKPFLQSAAATTNQATALKEALQPPIHLGHLPLQEGELPLVQQQVAPSDKPPKPELPGVDFADPQGPSLPGMDFPDPQGPSLPGLDFADPQGSTIFQIARLISHGPMPQNKQSPLYPGMLYVPFGANQLNAPARLGIMSSEEVAGGREDPMAYGAMFPGFGGMRPGFEGMPHNPAMGGDFTLEFDSPVAATKGPENEEGGAQGSPMPEANPDNLENPAFLTELEPAPHAGLLALPKDDIPGLPRSPSGKMKGLPSVTPAAADPLMTPELADVYRTYDADMTTSVDFQEEATMDTTMAPNSLQTSMPGNKAQEPEMMHDAWHFQEP

Variants of: B1
Conditions: with fa20c_human FAM20C

effect of a mutation on the interaction	Variant
with no effect	MSASKIPLFKMKDLILILCLLEMSFAVPFFPQQSGTPGMAALSLETMRQLGSLQRLNTLSQYSRYGFGKSFNSLWMHGLLPPHSSLPWMRPREHETQQYEYSLPVHPPPLPSQPSLKPQQPGLKPFLQSAAATTNQATALKEALQPPIHLGHLPLQEGELPLVQQQVAPSDKPPKPELPGVDFADPQGPSLPGMDFPDPQGPSLPGLDFADPQGSTIFQIARLISHGPMPQNKQSPLYPGMLYVPFGANQLNAPARLGIMSSEEVAGGREDPMAYGAMFPGFGGMRPGFEGMPHNPAMGGDFTLEFDSPVAATKGPENEEGGAQGSPMPEANPDNLENPAFLTELEPAPHAGLLALPKDDIPGLPRSPSGKMKGLPSVTPAAADPLMTPELADVYRTYDADMTTSVDFQEEATMDTTMAPNSLQTSMPGNKAQEPEMMHDAWHFQEP [S41A]
with no effect	MSASKIPLFKMKDLILILCLLEMSFAVPFFPQQSGAPGMASLSLETMRQLGSLQRLNTLSQYSRYGFGKSFNSLWMHGLLPPHSSLPWMRPREHETQQYEYSLPVHPPPLPSQPSLKPQQPGLKPFLQSAAATTNQATALKEALQPPIHLGHLPLQEGELPLVQQQVAPSDKPPKPELPGVDFADPQGPSLPGMDFPDPQGPSLPGLDFADPQGSTIFQIARLISHGPMPQNKQSPLYPGMLYVPFGANQLNAPARLGIMSSEEVAGGREDPMAYGAMFPGFGGMRPGFEGMPHNPAMGGDFTLEFDSPVAATKGPENEEGGAQGSPMPEANPDNLENPAFLTELEPAPHAGLLALPKDDIPGLPRSPSGKMKGLPSVTPAAADPLMTPELADVYRTYDADMTTSVDFQEEATMDTTMAPNSLQTSMPGNKAQEPEMMHDAWHFQEP [T36A]
with no effect	MSASKIPLFKMKDLILILCLLEMSFAVPFFPQQSGTPGMASLSLEAMRQLGSLQRLNTLSQYSRYGFGKSFNSLWMHGLLPPHSSLPWMRPREHETQQYEYSLPVHPPPLPSQPSLKPQQPGLKPFLQSAAATTNQATALKEALQPPIHLGHLPLQEGELPLVQQQVAPSDKPPKPELPGVDFADPQGPSLPGMDFPDPQGPSLPGLDFADPQGSTIFQIARLISHGPMPQNKQSPLYPGMLYVPFGANQLNAPARLGIMSSEEVAGGREDPMAYGAMFPGFGGMRPGFEGMPHNPAMGGDFTLEFDSPVAATKGPENEEGGAQGSPMPEANPDNLENPAFLTELEPAPHAGLLALPKDDIPGLPRSPSGKMKGLPSVTPAAADPLMTPELADVYRTYDADMTTSVDFQEEATMDTTMAPNSLQTSMPGNKAQEPEMMHDAWHFQEP [T46A]
with no effect	MSASKIPLFKMKDLILILCLLEMSFAVPFFPQQAGTPGMASLSLETMRQLGSLQRLNTLSQYSRYGFGKSFNSLWMHGLLPPHSSLPWMRPREHETQQYEYSLPVHPPPLPSQPSLKPQQPGLKPFLQSAAATTNQATALKEALQPPIHLGHLPLQEGELPLVQQQVAPSDKPPKPELPGVDFADPQGPSLPGMDFPDPQGPSLPGLDFADPQGSTIFQIARLISHGPMPQNKQSPLYPGMLYVPFGANQLNAPARLGIMSSEEVAGGREDPMAYGAMFPGFGGMRPGFEGMPHNPAMGGDFTLEFDSPVAATKGPENEEGGAQGSPMPEANPDNLENPAFLTELEPAPHAGLLALPKDDIPGLPRSPSGKMKGLPSVTPAAADPLMTPELADVYRTYDADMTTSVDFQEEATMDTTMAPNSLQTSMPGNKAQEPEMMHDAWHFQEP [S34A]
